# Patent US20240182536A1 (MURAL ONCOLOGY, published 2024)
# Numbering of substitutions follows the chain as printed. Names and notes keep the numbering of the source.
# T1: IL-18 receptors on HEK-Blue IL-18 reporter cells (UniProt Q13478 19-541; O95256 20-599, limits assumed)
# T1 sequence (looked up) 1: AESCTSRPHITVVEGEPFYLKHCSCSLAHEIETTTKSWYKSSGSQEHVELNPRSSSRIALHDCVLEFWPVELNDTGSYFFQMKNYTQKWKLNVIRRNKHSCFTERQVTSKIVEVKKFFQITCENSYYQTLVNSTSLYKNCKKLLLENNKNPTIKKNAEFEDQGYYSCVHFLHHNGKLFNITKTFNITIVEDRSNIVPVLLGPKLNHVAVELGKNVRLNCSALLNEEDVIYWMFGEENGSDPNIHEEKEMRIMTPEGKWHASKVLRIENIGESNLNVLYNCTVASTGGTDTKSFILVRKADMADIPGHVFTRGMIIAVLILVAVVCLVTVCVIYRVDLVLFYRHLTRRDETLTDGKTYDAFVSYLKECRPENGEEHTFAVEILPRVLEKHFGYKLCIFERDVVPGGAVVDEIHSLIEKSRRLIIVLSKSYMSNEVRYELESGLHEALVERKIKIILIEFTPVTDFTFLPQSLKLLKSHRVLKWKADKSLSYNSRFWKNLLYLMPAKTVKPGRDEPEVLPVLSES
# T1 sequence (looked up) 2: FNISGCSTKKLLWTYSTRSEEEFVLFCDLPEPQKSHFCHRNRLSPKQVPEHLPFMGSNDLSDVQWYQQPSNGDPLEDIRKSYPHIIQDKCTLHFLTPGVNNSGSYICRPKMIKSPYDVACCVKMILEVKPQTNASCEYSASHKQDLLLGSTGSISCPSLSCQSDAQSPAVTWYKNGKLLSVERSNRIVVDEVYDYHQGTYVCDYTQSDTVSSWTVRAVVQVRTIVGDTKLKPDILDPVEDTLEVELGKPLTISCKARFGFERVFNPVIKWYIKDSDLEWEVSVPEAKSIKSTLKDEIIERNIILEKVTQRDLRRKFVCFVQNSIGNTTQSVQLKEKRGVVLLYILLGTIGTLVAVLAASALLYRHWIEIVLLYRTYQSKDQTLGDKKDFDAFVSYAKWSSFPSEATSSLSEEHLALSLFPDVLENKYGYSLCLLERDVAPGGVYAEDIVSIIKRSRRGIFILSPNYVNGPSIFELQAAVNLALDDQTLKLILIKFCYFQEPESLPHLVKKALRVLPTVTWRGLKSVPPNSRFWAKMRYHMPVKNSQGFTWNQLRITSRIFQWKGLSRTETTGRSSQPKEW
# T2: interleukin 18 binding protein (IL-18BP) (UniProt O95998 31-194)
# T2 sequence (looked up): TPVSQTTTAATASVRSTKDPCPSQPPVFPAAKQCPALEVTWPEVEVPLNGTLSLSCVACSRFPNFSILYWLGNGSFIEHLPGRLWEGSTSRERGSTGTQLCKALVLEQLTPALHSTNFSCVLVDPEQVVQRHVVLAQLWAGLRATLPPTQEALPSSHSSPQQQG
# B1: IL-18 variant K53D, S55Q, P107M (ligand)
# chain: YFGKLESKLSVIRNLNDQVLFIDQGNRPLFEDMTDSDMRDNAPRTIFIISMYDDQQPRGMAVTISVKSEKISTLSSENKIISFKEMNPPDNIKDTKSDIIFFQRSVMGHDNKMQFESSSYEGYFLASEKERDLFKLILKKEDELGDRSIMFTVQNED
# B2: IL-18 variant K53H, S55I (ligand)
# chain: B1 chain with D53H, Q55I, M107P
# B3: IL-18 variant K53Y, S55V (ligand)
# chain: B1 chain with D53Y, Q55V, M107P
# B4: IL-18 variant K53H, S55H (ligand)
# chain: B1 chain with D53H, Q55H, M107P
# B5: IL-18 variant K53T, S55G, P107A, H109Q (ligand)
# chain: B1 chain with D53T, Q55G, M107A, H109Q
# B6: IL-18 variant S36W, D37E, D40F, N41I, K53D, S55N (ligand)
# chain: B1 chain with S36W, D37E, D40F, N41I, Q55N, M107P
# B7: IL-18 variant T34E, N41D, K53N, S55R (ligand)
# chain: B1 chain with T34E, N41D, D53N, Q55R, M107P
# B8: IL-18 variant K53N, S55Y (ligand)
# chain: B1 chain with D53N, Q55Y, M107P
# B9: IL-18 variant K53Y, S55Y, Q56H (ligand)
# chain: B1 chain with D53Y, Q55Y, Q56H, M107P
# B10: IL-18 variant K53S, S55Y, P107M (ligand)
# chain: B1 chain with D53S, Q55Y
# B11: IL-18 variant K53H, S55G (ligand)
# chain: B1 chain with D53H, Q55G, M107P
# B12: IL-18 variant K53H, S55Q (ligand)
# chain: B1 chain with D53H, M107P
# B13: IL-18 variant K53S, S55F, T63S, R104K, H109Y (ligand)
# chain: B1 chain with D53S, Q55F, T63S, R104K, M107P, H109Y
# B14: IL-18 variant L9V, K53H, S55M (ligand)
# chain: B1 chain with L9V, D53H, Q55M, M107P
# B15: IL-18 variant K53D, S55T, H109I (ligand)
# chain: B1 chain with Q55T, M107P, H109I
# B16: IL-18 variant K53L, S55E (ligand)
# chain: B1 chain with D53L, Q55E, M107P
# B17: IL-18 variant K53H, S55M, Q56H (ligand)
# chain: B1 chain with D53H, Q55M, Q56H, M107P
# Target: T1, IL-18 receptors on HEK-Blue IL-18 …
# Assay: cell-based or functional assay
Binder,"HEK-Blue activity, No BP, DF-10000","HEK-Blue activity, No BP, DF-100,000","HEK-Blue activity, No BP, DF-1,000,000"
B1,0.19,0.13,0.13
B2,0.14,0.1,0.09
B3,0.16,0.2,0.16
B4,0.15,0.1,0.08
B5,0.13,0.1,0.11
B6,0.13,0.14,0.13
B7,0.14,0.1,0.09
B8,0.16,0.09,0.08
B9,0.16,0.15,0.14
B10,0.15,0.11,0.12
B11,0.13,0.1,0.08
B12,0.14,0.1,0.09
B13,0.14,0.09,0.09
B14,0.15,0.1,0.11
B15,0.13,0.09,0.08
B16,0.14,0.1,0.09
B17,0.14,0.09,0.08

# Target: T2, interleukin 18 binding protein (IL-18BP)
# Assay: cell-based or functional assay
Binder,"HEK-Blue activity, +100 nM BP, DF-10000","HEK-Blue activity, +100 nM BP, DF-100,000","HEK-Blue activity, +100 nM BP, DF-1,000,000","Ratio (-BP/+BP), DF-10000","Ratio (-BP/+BP), DF-100,000","Ratio (-BP/+BP), DF-1,000,000"
B1,0.22,0.14,0.13,0.85,0.97,1.02
B2,0.16,0.11,0.1,0.92,0.9,0.89
B3,0.16,0.14,0.13,1.03,1.44,1.27
B4,0.15,0.1,0.09,1.01,0.99,0.96
B5,0.12,0.16,0.12,1.1,0.63,0.87
B6,0.2,0.13,0.12,0.68,1.07,1.05
B7,0.1,0.13,0.09,1.42,0.74,1.05
B8,0.14,0.09,0.09,1.11,1.02,0.96
B9,0.22,0.2,0.19,0.73,0.76,0.73
B10,0.19,0.14,0.18,0.82,0.76,0.69
B11,0.12,0.09,0.08,1.08,1.04,1.02
B12,0.14,0.1,0.1,1.03,1.03,0.91
B13,0.13,0.09,0.09,1.03,1,0.99
B14,0.16,0.1,0.14,0.94,1.01,0.78
B15,0.12,0.09,0.09,1.1,0.97,0.98
B16,0.12,0.09,0.09,1.12,1.07,1.01
B17,0.15,0.1,0.09,0.97,0.96,0.92
